Measurements reported in patent publication US20090285799A1 (CSL, published 2009).

T1: hIL-13Rα1.ECR (N-terminal FLAG-tagged fusion protein of the extracellular region of human IL-13Rα1) (human, UniProt P78552 29-343)
T1 construct: also called human IL-13Rα1.ECR; hIL-13Rα1 extracellular domain
T1 sequence: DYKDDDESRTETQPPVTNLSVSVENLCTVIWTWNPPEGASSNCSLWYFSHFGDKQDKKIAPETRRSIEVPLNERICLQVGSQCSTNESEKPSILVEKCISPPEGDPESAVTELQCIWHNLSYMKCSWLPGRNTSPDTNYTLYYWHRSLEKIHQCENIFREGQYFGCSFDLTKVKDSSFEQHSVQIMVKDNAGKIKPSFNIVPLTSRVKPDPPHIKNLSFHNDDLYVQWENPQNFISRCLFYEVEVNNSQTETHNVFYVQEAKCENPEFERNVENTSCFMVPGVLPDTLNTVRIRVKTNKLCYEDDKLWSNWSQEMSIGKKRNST

T2: human IL-13Rα1 on normal human dermal fibroblast (NHDF) cells (human, UniProt P78552 27-427)
T2 sequence: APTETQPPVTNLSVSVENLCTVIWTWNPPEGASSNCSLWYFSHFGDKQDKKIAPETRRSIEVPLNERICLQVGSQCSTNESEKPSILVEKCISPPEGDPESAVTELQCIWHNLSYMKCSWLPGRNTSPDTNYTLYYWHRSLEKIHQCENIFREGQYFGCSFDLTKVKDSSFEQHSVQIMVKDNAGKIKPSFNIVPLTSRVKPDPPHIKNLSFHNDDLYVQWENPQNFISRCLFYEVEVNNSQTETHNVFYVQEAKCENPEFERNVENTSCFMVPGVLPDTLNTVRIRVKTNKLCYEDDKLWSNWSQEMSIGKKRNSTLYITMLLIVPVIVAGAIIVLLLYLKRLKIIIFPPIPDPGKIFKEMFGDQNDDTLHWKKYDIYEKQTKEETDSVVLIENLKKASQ


How the values were obtained:
[1] = target: T1, hIL-13Rα1.ECR (N-terminal FLAG-tagged …); experiment: KINEXA kinetic exclusion assay, full-length IgG4
[2] = target: T2, human IL-13Rα1 on normal human dermal …; experiment: cell-based or functional assay
[3] = target: T1, hIL-13Rα1.ECR (N-terminal FLAG-tagged …); experiment: BIACORE SPR, chip-bound hIL-13Rα1 extracellular domain, Fab format

Binder	Kd [1]	inhibition of eotaxin release from NHDF cells upon stimulation with IL-13 (IC50) [2]	Kd [3]
8B4-IgG4 (antibody, V domains shown, Recombinant full-length antibody of subclass IgG4 with kappa light chain (Lonza pCONGAMMA4/pCONKAPPA vectors), made in 293 cells) VH: EVQVLESGGGLVQPGGSLRLSCAASGFTFSNYAMTWVRQAPGKGLEWVSTISGRGYSIYYADSVKGRFTISRDNSKNTVYLQMNSLRAEDTAVYYCAKEEGHWYFDVWGRGTLVTVSS VL: EIVLTQSPDFQSVTPKEKVTITCRASQSIGSSLHWYQQKPDQSPKLLIKYASQSFSGVPSRFSGSGSGTDFTLTINSLEAEDAAAYYCHQSSSLPYTFGQGTKLEIK	0.68 nM	~1 µg/mL	–
8B4-78M (optimized antibody, eotaxin assay) (antibody, V domains shown) VH: EVQVLESGGGLVQPGGSLRLSCAASGFTFSNYAMTWVRQAPGKGLEWVSTISGRGYSIYYADSVKGRFTISRDNSKNTVYLQMNSLRAEDTAVYYCAKEEGHWYFDVWGRGTLVTVSS VL: EIVLTQSPDFQSVTPKEKVTITCRASQSIGSSLHWYQQKPDQSPKLLIKYASQSFSGVPSRFSGSGSGTDFTLTINSLEAEDAAAYYCMSSMGLPYTFGQGTKLEIK	–	~0.1 µg/mL	–
8B4-74C (eotaxin assay) (antibody, V domains shown) VH: EVQVLESGGGLVQPGGSLRLSCAASGFTFSNYAMTWVRQAPGKGLEWVSTISGRGYSIYYADSVKGRFTISRDNSKNTVYLQMNSLRAEDTAVYYCAKEEGHWYFDVWGRGTLVTVSS VL: EIVLTQSPDFQSVTPKEKVTITCRASQSIGSSLHWYQQKPDQSPKLLIKYASQSFSGVPSRFSGSGSGTDFTLTINSLEAEDAAAYYCMSSLGLPYTFGQGTKLEIK	–	0.1 µg/mL	–
8B4-36 (eotaxin assay) (antibody, V domains shown) VH: EVQVLESGGGLVQPGGSLRLSCAASGFTFSNYAMTWVRQAPGKGLEWVSTISGRGYSIYYADSVKGRFTISRDNSKNTVYLQMNSLRAEDTAVYYCAKEEGHWYFDVWGRGTLVTVSS VL: EIVLTQSPDFQSVTPKEKVTITCRASQSIGSSLHWYQQKPDQSPKLLIKYASQSFSGVPSRFSGSGSGTDFTLTINSLEAEDAAAYYCVSSWGLPYTFGQGTKLEIK	–	0.17 µg/mL	–
8B4-82 (eotaxin assay) (antibody, V domains shown) VH: EVQVLESGGGLVQPGGSLRLSCAASGFTFSNYAMTWVRQAPGKGLEWVSTISGRGYSIYYADSVKGRFTISRDNSKNTVYLQMNSLRAEDTAVYYCAKEEGHWYFDVWGRGTLVTVSS VL: EIVLTQSPDFQSVTPKEKVTITCRASQSIGSSLHWYQQKPDQSPKLLIKYASQSFSGVPSRFSGSGSGTDFTLTINSLEAEDAAAYYCASSRGLPYTFGQGTKLEIK	–	1.31 µg/mL	–
8B4-21C (eotaxin assay) (antibody, V domains shown) VH: EVQVLESGGGLVQPGGSLRLSCAASGFTFSNYAMTWVRQAPGKGLEWVSTISGRGYSIYYADSVKGRFTISRDNSKNTVYLQMNSLRAEDTAVYYCAKEEGHWYFDVWGRGTLVTVSS VL: EIVLTQSPDFQSVTPKEKVTITCRASQSIGSSLHWYQQKPDQSPKLLIKYASQSFSGVPSRFSGSGSGTDFTLTINSLEAEDAAAYYCKSSAGLPYTFGQGTKLEIK	–	0.75 µg/mL	–
8B4-18C (Fab) (Fab, V domains shown, Fab format; only CDR3s were mutated) VH: EVQVLESGGGLVQPGGSLRLSCAASGFTFSNYAMTWVRQAPGKGLEWVSTISGRGYSIYYADSVKGRFTISRDNSKNTVYLQMNSLRAEDTAVYYCAKEEGHWYFDVWGRGTLVTVSS VL: EIVLTQSPDFQSVTPKEKVTITCRASQSIGSSLHWYQQKPDQSPKLLIKYASQSFSGVPSRFSGSGSGTDFTLTINSLEAEDAAAYYCMNSLGLPYTFGQGTKLEIK	–	–	0.085 nM
8B4-18C-IgG4 (antibody, V domains shown, Full-length IgG4, kappa) VH: EVQVLESGGGLVQPGGSLRLSCAASGFTFSNYAMTWVRQAPGKGLEWVSTISGRGYSIYYADSVKGRFTISRDNSKNTVYLQMNSLRAEDTAVYYCAKEEGHWYFDVWGRGTLVTVSS VL: EIVLTQSPDFQSVTPKEKVTITCRASQSIGSSLHWYQQKPDQSPKLLIKYASQSFSGVPSRFSGSGSGTDFTLTINSLEAEDAAAYYCMNSLGLPYTFGQGTKLEIK	0.051 nM	–	–
8B4-21C (Fab) (Fab, V domains shown, Fab format; only CDR3s were mutated) VH: EVQVLESGGGLVQPGGSLRLSCAASGFTFSNYAMTWVRQAPGKGLEWVSTISGRGYSIYYADSVKGRFTISRDNSKNTVYLQMNSLRAEDTAVYYCAKEEGHWYFDVWGRGTLVTVSS VL: EIVLTQSPDFQSVTPKEKVTITCRASQSIGSSLHWYQQKPDQSPKLLIKYASQSFSGVPSRFSGSGSGTDFTLTINSLEAEDAAAYYCKSSAGLPYTFGQGTKLEIK	–	–	0.17 nM
8B4-36 (Fab) (Fab, V domains shown, Fab format; only CDR3s were mutated) VH: EVQVLESGGGLVQPGGSLRLSCAASGFTFSNYAMTWVRQAPGKGLEWVSTISGRGYSIYYADSVKGRFTISRDNSKNTVYLQMNSLRAEDTAVYYCAKEEGHWYFDVWGRGTLVTVSS VL: EIVLTQSPDFQSVTPKEKVTITCRASQSIGSSLHWYQQKPDQSPKLLIKYASQSFSGVPSRFSGSGSGTDFTLTINSLEAEDAAAYYCVSSWGLPYTFGQGTKLEIK	–	–	0.085 nM
8B4-74C (Fab) (Fab, V domains shown, Fab format; only CDR3s were mutated) VH: EVQVLESGGGLVQPGGSLRLSCAASGFTFSNYAMTWVRQAPGKGLEWVSTISGRGYSIYYADSVKGRFTISRDNSKNTVYLQMNSLRAEDTAVYYCAKEEGHWYFDVWGRGTLVTVSS VL: EIVLTQSPDFQSVTPKEKVTITCRASQSIGSSLHWYQQKPDQSPKLLIKYASQSFSGVPSRFSGSGSGTDFTLTINSLEAEDAAAYYCMSSLGLPYTFGQGTKLEIK	–	–	0.045 nM
8B4-78M (Fab) (Fab, V domains shown, Fab format; only CDR3s were mutated) VH: EVQVLESGGGLVQPGGSLRLSCAASGFTFSNYAMTWVRQAPGKGLEWVSTISGRGYSIYYADSVKGRFTISRDNSKNTVYLQMNSLRAEDTAVYYCAKEEGHWYFDVWGRGTLVTVSS VL: EIVLTQSPDFQSVTPKEKVTITCRASQSIGSSLHWYQQKPDQSPKLLIKYASQSFSGVPSRFSGSGSGTDFTLTINSLEAEDAAAYYCMSSMGLPYTFGQGTKLEIK	–	–	0.049 nM
8B4-78M-IgG4 (antibody, V domains shown, Full-length IgG4, kappa) VH: EVQVLESGGGLVQPGGSLRLSCAASGFTFSNYAMTWVRQAPGKGLEWVSTISGRGYSIYYADSVKGRFTISRDNSKNTVYLQMNSLRAEDTAVYYCAKEEGHWYFDVWGRGTLVTVSS VL: EIVLTQSPDFQSVTPKEKVTITCRASQSIGSSLHWYQQKPDQSPKLLIKYASQSFSGVPSRFSGSGSGTDFTLTINSLEAEDAAAYYCMSSMGLPYTFGQGTKLEIK	0.038 nM	–	–
8B4-80C (Fab) (Fab, V domains shown, Fab format; only CDR3s were mutated) VH: EVQVLESGGGLVQPGGSLRLSCAASGFTFSNYAMTWVRQAPGKGLEWVSTISGRGYSIYYADSVKGRFTISRDNSKNTVYLQMNSLRAEDTAVYYCAKEEGHWYFDVWGRGTLVTVSS VL: EIVLTQSPDFQSVTPKEKVTITCRASQSIGSSLHWYQQKPDQSPKLLIKYASQSFSGVPSRFSGSGSGTDFTLTINSLEAEDAAAYYCMSSWGLPYTFGQGTKLEIK	–	–	0.25 nM
8B4-82 (Fab) (Fab, V domains shown, Fab format; only CDR3s were mutated) VH: EVQVLESGGGLVQPGGSLRLSCAASGFTFSNYAMTWVRQAPGKGLEWVSTISGRGYSIYYADSVKGRFTISRDNSKNTVYLQMNSLRAEDTAVYYCAKEEGHWYFDVWGRGTLVTVSS VL: EIVLTQSPDFQSVTPKEKVTITCRASQSIGSSLHWYQQKPDQSPKLLIKYASQSFSGVPSRFSGSGSGTDFTLTINSLEAEDAAAYYCASSRGLPYTFGQGTKLEIK	–	–	0.073 nM
8B4 (Fab) (Fab, V domains shown, Fab format from vector pFab3d) VH: EVQVLESGGGLVQPGGSLRLSCAASGFTFSNYAMTWVRQAPGKGLEWVSTISGRGYSIYYADSVKGRFTISRDNSKNTVYLQMNSLRAEDTAVYYCAKEEGHWYFDVWGRGTLVTVSS VL: EIVLTQSPDFQSVTPKEKVTITCRASQSIGSSLHWYQQKPDQSPKLLIKYASQSFSGVPSRFSGSGSGTDFTLTINSLEAEDAAAYYCHQSSSLPYTFGQGTKLEIK	–	–	2.15 nM
